Measured values reported in PMC4072508, “Genome-Wide Prediction and Validation of Peptides That Bind Human Prosurvival Bcl-2 Proteins” (PLoS Computational Biology, 2014).

Tests used:
Test in all cases: peptide SPOT array, c-Myc-tagged receptor at 1 uM or 100 nM, anti-c-Myc-Cy3
Bcl-2, P10415 = biological target: Bcl-2, P10415
Bcl-w, Q92843 = biological target: T1, Bcl-w, Q92843
T1 chain: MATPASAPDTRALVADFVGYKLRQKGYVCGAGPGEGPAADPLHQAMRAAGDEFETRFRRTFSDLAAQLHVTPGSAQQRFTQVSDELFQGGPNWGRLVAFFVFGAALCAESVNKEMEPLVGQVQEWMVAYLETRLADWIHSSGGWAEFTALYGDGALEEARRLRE

Bcl-xL, Q07817 = biological target: Bcl-xL, Q07817
Bfl-1, Q16548 = biological target: T2, Bfl-1, Q16548
T2 chain: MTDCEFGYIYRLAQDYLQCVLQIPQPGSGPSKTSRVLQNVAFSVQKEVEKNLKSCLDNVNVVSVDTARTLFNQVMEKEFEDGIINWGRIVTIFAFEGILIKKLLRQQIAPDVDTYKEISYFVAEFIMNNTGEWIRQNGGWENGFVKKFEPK

Mcl-1, Q07820 = biological target: T3, Mcl-1, Q07820
T3 chain: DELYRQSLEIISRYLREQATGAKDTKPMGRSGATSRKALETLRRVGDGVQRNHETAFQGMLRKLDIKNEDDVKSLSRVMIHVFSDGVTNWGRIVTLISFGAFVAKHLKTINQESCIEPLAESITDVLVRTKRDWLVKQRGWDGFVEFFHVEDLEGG

Sequence of Bcl-2, P10415 (P10415 1-217): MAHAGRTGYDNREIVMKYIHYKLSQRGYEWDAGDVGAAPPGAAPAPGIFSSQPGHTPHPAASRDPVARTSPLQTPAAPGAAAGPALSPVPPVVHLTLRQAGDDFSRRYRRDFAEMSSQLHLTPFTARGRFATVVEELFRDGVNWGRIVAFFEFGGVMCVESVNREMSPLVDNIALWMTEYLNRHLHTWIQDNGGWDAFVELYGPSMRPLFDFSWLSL
Sequence of Bcl-xL, Q07817 (Q07817 1-209): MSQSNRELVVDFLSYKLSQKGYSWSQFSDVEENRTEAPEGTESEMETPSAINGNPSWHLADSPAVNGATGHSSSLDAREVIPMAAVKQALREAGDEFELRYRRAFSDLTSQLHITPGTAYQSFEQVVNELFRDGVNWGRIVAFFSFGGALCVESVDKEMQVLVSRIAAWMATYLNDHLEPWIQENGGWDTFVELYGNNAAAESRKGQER

Row | Binder | SPOT signal as a fraction of Bim BH3's signal on the same receptor and array (Bcl-2, P10415) | SPOT signal as a fraction of Bim BH3's signal on the same receptor and array (Bcl-w, Q92843) | SPOT signal as a fraction of Bim BH3's signal on the same receptor and array (Bcl-xL, Q07817) | SPOT signal as a fraction of Bim BH3's signal on the same receptor and array (Bfl-1, Q16548) | SPOT signal as a fraction of Bim BH3's signal on the same receptor and array (Mcl-1, Q07820)
1 | PFKKMDFSRNLYDIGEQLDSEDLASL [CASP8] | 0.02 | 0.03 | 0.07 | 0.02 | 0.05
2 | NWFGDWSTEALYQVGKEFTSKMDLEK [DYNC1H1] | 0.02 | 0.03 | 0.04 | 0.03 | 0.03
3 | VDVIDDHERGLIRNGRDFLLALERQG [DEDD] | 0.01 | 0.02 | 0.03 | 0.02 | 0.04
4 | DGLDLPSETDLRILGCELIQAAGILL [CCNL1] | 0.01 | 0.01 | 0.03 | 0.01 | 0.03
5 | DISALTASNLLKKYAEKYSGILEGPV [FIGN] | 0.06 | 0.13 | 0.1 | 0.33 | 0.13
6 | KGKIDVCIVLLQHGADPNIRNTDGKS | 0.02 | 0.03 |  | 0.1 | 
7 | DAIIQMIVELLKRVGDQWEEEQSLAS [C6orf222] | 0.01 | 0.33 | 0.16 | 0.06 | 0.09
8 | HPKRKQVTELLLRKGANVNEKNKDFM | 0.13 | 0.5 |  | 0.48 | 
9 | EQILAKIVELLKYSGDQLERKLKKDK [BCL2L14] | 0.49 | 0.74 |  | 0.75 | 
10 | CLSCDLCGCRLGEVGRRLYYKLGRKL [LMO2] | 0.59 | 1.8 | 1.18 | 1.61 | 0.86
11 | AYRGRGIAKHLAKAALDFVVEEDLKA [C17orf103] | 0.05 | 0.29 | 0.36 | 0.11 | 0.07
12 | GVAASDFIRSLDHCGDLALEGVFSHK [NLRC4] | 0.01 | 0.02 | 0.02 | 0.01 | 0.02
13 | VIKQRRLPDQLSKLADRIQLSGRYYL [RAPGEF2] | 0.49 | 1.08 | 1.08 | 0.91 | 0.69
14 | SQRGTDFSVLLSSAGDSFSQFRFAEE [AVEN] | 0.02 | 0.07 | 0.16 | 0.03 | 0.06
15 | ELLRLRQHWKLRKVGDKILGDLSYRS [MED17] | 0.33 | 1.03 | 0.89 | 0.78 | 0.48
16 | VFERCELARTLKRLGMDGYRGISLAN [LYZ] | 0.27 | 0.69 | 0.65 | 0.74 | 0.38
17 | LNELYQRAKKLSKAGDNIPEEQPVAS [TMX2] | 0.02 | 0.07 | 0.13 | 0.07 | 0.05
18 | YTCRGHIPGFLQTTADEFCFYYARKD [HHIP] | 0.02 | 0.1 | 0.07 | 0.06 | 0.04
19 | EGTKIVLGKQLIESADEVRRKSLVLK [TAF1] | 0.07 | 0.48 |  | 0.34 | 
20 | DLSSTFVSLALRKVGDWPLSARREKG [TTC31] | 0.2 | 1.09 | 0.29 | 0.75 | 0.47
21 | ALNAQPSAEELSKIADSVNLPLDVVK [ZEB1] | 0.01 | 0.01 | 0.02 | 0.01 | 0.02
22 | QLRLSDAGQYLCQAGDDSNSNKKNAD [PIGR] | 0.01 | 0.02 | 0.03 | 0.03 | 0.02
23 | FQQLRHRIQDLEQLAKEQDKESEKQL [BNIP1] | 0.02 | 0.04 |  | 0.08 | 
